Test results as given in IntAct's records for PubMed 30058071.

Molecular target: SHANK3, Q9BYB0-1
Sequence (Q9BYB0 whole entry): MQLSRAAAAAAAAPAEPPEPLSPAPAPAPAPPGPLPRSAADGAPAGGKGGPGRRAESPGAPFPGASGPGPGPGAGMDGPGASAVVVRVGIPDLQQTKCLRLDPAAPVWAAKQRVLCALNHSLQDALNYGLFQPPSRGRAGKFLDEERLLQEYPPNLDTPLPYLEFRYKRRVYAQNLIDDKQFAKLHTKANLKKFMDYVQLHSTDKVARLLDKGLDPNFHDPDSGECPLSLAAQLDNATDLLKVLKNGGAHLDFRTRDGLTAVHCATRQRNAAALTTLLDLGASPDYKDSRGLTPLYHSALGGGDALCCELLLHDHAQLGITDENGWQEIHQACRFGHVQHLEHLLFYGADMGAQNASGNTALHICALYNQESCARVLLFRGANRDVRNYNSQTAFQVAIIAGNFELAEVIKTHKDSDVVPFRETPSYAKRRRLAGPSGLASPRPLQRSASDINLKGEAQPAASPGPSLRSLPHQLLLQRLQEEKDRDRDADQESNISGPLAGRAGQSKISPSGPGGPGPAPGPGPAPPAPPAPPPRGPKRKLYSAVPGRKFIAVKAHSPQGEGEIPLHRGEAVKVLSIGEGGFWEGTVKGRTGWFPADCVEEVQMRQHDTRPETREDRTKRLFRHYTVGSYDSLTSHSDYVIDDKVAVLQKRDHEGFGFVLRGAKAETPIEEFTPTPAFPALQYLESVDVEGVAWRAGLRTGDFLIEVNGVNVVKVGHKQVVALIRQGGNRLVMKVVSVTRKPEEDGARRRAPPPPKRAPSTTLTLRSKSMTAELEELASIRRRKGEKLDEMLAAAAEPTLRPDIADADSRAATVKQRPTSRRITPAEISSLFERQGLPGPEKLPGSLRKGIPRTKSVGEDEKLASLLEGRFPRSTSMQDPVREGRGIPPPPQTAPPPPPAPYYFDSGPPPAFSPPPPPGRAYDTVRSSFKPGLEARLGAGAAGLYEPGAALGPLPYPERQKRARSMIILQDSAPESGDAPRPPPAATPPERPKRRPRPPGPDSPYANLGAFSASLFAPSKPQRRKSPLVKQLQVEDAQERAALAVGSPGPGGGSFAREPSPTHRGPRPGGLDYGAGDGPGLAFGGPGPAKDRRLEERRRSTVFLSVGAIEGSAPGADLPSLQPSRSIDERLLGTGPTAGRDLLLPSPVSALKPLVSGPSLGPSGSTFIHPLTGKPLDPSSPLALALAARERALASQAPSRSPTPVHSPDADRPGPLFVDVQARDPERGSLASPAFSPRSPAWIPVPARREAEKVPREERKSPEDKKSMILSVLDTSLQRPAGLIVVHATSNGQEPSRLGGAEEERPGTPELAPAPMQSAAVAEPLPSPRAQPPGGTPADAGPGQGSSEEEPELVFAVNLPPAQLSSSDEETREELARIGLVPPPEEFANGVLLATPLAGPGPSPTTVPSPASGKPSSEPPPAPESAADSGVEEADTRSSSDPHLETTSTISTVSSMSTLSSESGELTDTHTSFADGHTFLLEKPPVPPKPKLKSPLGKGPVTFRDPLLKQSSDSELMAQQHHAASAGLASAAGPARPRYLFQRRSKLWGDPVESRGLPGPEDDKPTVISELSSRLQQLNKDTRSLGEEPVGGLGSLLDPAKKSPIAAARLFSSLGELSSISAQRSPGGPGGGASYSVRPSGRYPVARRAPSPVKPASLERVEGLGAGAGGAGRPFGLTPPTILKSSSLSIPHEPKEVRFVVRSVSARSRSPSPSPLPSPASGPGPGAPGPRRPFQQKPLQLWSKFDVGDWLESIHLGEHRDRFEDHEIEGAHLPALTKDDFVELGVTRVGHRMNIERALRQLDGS

Voltage-dependent L-type calcium channel subunit alpha-1D (Homo sapiens), Q01668 R1908G
effect of a mutation on the interaction: disrupting interaction strength
